Measured values taken from paper PMC12136491, “Establishment of an efficient one-step enzymatic synthesis of cyclic-2,3-diphosphoglycerate” (Frontiers in Microbiology, 2025).

Legend:
purified protein [1] = substrate: Nc1ncnc2c1ncn2[C@@H]1O[C@H](COP(=O)(O)OP(=O)(O)OP(=O)(O)O)[C@@H](O)[C@H]1O; assay: purified protein; assay type: biochemical, Methanothermus fervidus; settings: 10 mM 2,3DPG constant, Mg2+/ATP molar ratio 0.5, 50 mM MES/KOH pH 6.5, 400 mM KCl, 55°C, two-substrate Michaelis-Menten fit
purified protein [2] = substrate: O=C(O)[C@@H](COP(=O)(O)O)OP(=O)(O)O; assay: purified protein; assay type: biochemical, Methanothermus fervidus; settings: 10 mM ATP constant, Mg2+/ATP molar ratio 0.5, 50 mM MES/KOH pH 6.5, 400 mM KCl, 55°C, two-substrate Michaelis-Menten fit

B1: MfcDPGS (cyclic-2,3-diphosphoglycerate synthetase) (Methanothermus fervidus DSM 2088) (protein)
chain: GETKKMICLVDGEHYFPVVKDSIEILDDLEHIDVVAVVFIGGTEKLQIEDPKEYSEKLGKPVFFGPDPKKIPYDVIKKCVKKYNADIVMDLSDEPVVDYTKRFRIASIVLKEGAVYQGADFKFEPLTEYDVLEKPSIKIIGTGKRIGKTAVSAYAARVIHKHKYNPCVVAMGRGGPREPEIVEGNKIEITAEYLLEQADKGVHAASDHWEDALMSRILTVGCRRCGGGMLGDTFITNVKRGAEIANKLDSDFVIMEGSGAAIPPVKTNRQIVTVGANQPMININNFFGPFRIGLADLVIITMCEEPMATTEKIKKVEKFIKEINPSANVIPTVFRPKPVGNVEGKKVLFATTAPKVVVGKLVNYLESKYGCDVVGVTPHLSNRPLLRRDLKKYINKADLMLTELKAAAVDVATRVAIEAGLDVVYCDNIPVVIDESYGNIDDAIIEVVEMAIDDFKNNR
notes: heat precipitation and SEC; homodimer (119 kDa)
Km (purified protein [1]): 550 ± 80 µM | Km (purified protein [2]): 1520 ± 400 µM
